According to patent US20130171163A1 (published 2013):

B1: VEGFR3 (receptor, human, UniProt P35916 25-1363, looked up)
chain: YSMTPPTLNITEESHVIDTGDSLSISCRGQHPLEWAWPGAQEAPATGDKDSEDTGVVRDCEGTDARPYCKVLLLHEVHANDTGSYVCYYKYIKARIEGTTAASSYVFVRDFEQPFINKPDTLLVNRKDAMWVPCLVSIPGLNVTLRSQSSVLWPDGQEVVWDDRRGMLVSTPLLHDALYLQCETTWGDQDFLSNPFLVHITGNELYDIQLLPRKSLELLVGEKLVLNCTVWAEFNSGVTFDWDYPGKQAERGKWVPERRSQQTHTELSSILTIHNVSQHDLGSYVCKANNGIQRFRESTEVIVHENPFISVEWLKGPILEATAGDELVKLPVKLAAYPPPEFQWYKDGKALSGRHSPHALVLKEVTEASTGTYTLALWNSAAGLRRNISLELVVNVPPQIHEKEASSPSIYSRHSRQALTCTAYGVPLPLSIQWHWRPWTPCKMFAQRSLRRRQQQDLMPQCRDWRAVTTQDAVNPIESLDTWTEFVEGKNKTVSKLVIQNANVSAMYKCVVSNKVGQDERLIYFYVTTIPDGFTIESKPSEELLEGQPVLLSCQADSYKYEHLRWYRLNLSTLHDAHGNPLLLDCKNVHLFATPLAASLEEVAPGARHATLSLSIPRVAPEHEGHYVCEVQDRRSHDKHCHKKYLSVQALEAPRLTQNLTDLLVNVSDSLEMQCLVAGAHAPSIVWYKDERLLEEKSGVDLADSNQKLSIQRVREEDAGRYLCSVCNAKGCVNSSASVAVEGSEDKGSMEIVILVGTGVIAVFFWVLLLLIFCNMRRPAHADIKTGYLSIIMDPGEVPLEEQCEYLSYDASQWEFPRERLHLGRVLGYGAFGKVVEASAFGIHKGSSCDTVAVKMLKEGATASEHRALMSELKILIHIGNHLNVVNLLGACTKPQGPLMVIVEFCKYGNLSNFLRAKRDAFSPCAEKSPEQRGRFRAMVELARLDRRRPGSSDRVLFARFSKTEGGARRASPDQEAEDLWLSPLTMEDLVCYSFQVARGMEFLASRKCIHRDLAARNILLSESDVVKICDFGLARDIYKDPDYVRKGSARLPLKWMAPESIFDKVYTTQSDVWSFGVLLWEIFSLGASPYPGVQINEEFCQRLRDGTRMRAPELATPAIRRIMLNCWSGDPKARPAFSELVEILGDLLQGRGLQEEEEVCMAPRSSQSSEEGSFSQVSTMALHIAQADAEDSPPSLQRHSLAARYYNWVSFPGCLARGAETRGSSRMKTFEEFPMTPTTYKGSVDNQTDSGMVLASEEFEQIESRHRQESGFSCKGPGQNVAVTRAHPDSQGRRRRPERGARGGQVFYNSEYGELSEPSEEDHCSPSARVTFFTDNSY
notes: Endogenous protein in HUVEC lysates, with or without VEGF treatment (20 ng/ml, 10 min)

Key:
VEGFR2 = target: T1, VEGFR2 (human, UniProt P35968 20-1356); experiment: GST pulldown from HUVEC lysates, Western blot with anti-VEGFR2
T1 construct: Endogenous protein in HUVEC lysates, with or without VEGF treatment (20 ng/ml, 10 min)
Protocol: (§1) C, Lysates from HUVECs stimulated with or without VEGF (20 ng/ml) for 10 min were immunoprecipitated with polyclonal antibodies against anti-cLAR or control goat IgG, followed by immunoblotting with anti-VEGFR2 (top), VEGFR3 (middle) or anti-cLAR antibody (bottom). D, Equal amounts of GST or GST-cLAR fusion protein were immobilized on glutathione-Sepharose beads and then incubated with HUVEC lysates containing equal amount of protein. GST or GST-cLAR-associated proteins were analyzed by Western blotting using anti-IGF-1Rβ antibody. The same membrane was reprobed with anti-GST antibody (E), anti-VEGFR2 (F, top) or anti-VEGFR3 (F, bottom) antibodies.

VEGFR3 = target: B1; experiment: GST pulldown from HUVEC lysates, Western blot with anti-VEGFR3
Protocol: as §1

[1] = target: T2, leukocyte antigen-related protein tyrosine phosphatase (LAR) (human, UniProt P10586 30-1907, limits assumed); experiment: co-immunoprecipitation from HUVEC lysates with anti-cLAR antibody, Western blot with anti-VEGFR3
T2 construct: Endogenous protein in HUVEC lysates; The background section describes LAR as a non-covalent complex of a 150-kDa E subunit and an 85-kDa P subunit, cleaved from a 200-kDa proprotein; In the functional assays, full-length human LAR was overexpressed from adenovirus (AdLAR) or knocked down with siRNA; also called LAR PTP; leukocyte antigen-related (LAR) PTP
Protocol: as §1

T1 sequence (P35968 20-1356 limits assumed): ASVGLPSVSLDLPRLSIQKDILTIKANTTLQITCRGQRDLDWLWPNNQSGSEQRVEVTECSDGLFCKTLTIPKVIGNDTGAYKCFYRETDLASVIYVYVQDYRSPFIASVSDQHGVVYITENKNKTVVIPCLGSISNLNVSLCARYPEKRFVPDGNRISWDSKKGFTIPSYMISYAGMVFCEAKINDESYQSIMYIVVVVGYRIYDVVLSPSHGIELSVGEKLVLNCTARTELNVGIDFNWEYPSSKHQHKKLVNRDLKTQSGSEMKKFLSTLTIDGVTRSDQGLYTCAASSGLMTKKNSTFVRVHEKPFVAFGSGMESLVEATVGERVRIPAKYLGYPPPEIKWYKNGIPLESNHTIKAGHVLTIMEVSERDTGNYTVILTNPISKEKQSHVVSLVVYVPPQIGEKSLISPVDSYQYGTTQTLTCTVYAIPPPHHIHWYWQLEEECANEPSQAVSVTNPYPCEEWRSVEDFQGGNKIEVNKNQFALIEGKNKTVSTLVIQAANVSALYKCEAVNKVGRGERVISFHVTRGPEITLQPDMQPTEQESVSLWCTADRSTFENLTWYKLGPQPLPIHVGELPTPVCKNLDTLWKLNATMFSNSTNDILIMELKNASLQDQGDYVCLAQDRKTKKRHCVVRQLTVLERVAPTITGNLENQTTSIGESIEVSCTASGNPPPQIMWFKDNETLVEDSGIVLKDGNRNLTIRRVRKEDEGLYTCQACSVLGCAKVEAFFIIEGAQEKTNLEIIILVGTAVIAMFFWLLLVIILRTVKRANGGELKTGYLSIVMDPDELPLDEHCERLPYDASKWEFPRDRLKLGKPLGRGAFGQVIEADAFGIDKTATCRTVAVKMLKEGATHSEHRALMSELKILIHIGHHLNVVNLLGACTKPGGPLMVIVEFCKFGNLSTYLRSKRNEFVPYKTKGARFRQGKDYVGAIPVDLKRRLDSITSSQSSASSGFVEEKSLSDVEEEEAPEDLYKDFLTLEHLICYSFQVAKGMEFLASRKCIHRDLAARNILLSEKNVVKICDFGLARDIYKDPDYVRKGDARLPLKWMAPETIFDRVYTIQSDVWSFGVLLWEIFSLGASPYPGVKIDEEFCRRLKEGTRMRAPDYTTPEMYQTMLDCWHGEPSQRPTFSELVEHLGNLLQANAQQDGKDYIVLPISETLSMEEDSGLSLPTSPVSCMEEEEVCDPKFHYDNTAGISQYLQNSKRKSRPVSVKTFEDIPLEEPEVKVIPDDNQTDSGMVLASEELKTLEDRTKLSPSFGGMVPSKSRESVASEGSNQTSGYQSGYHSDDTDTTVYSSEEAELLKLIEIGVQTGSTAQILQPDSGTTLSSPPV

| Binder | binding result (VEGFR2) | binding result (VEGFR3) | binding result [1] |
| --- | --- | --- | --- |
| GST-cLAR fusion protein (other, UniProt P10586 1285-1907, looked up, domain: cytoplasmic LAR (cLAR); The fusion was immobilized on glutathione-Sepharose beads and incubated with HUVEC lysates; not shown: Glutathione-S-transferase (GST) tag) KRKRTHSPSSKDEQSIGLKDSLLAHSSDPVEMRRLNYQTPGMRDHPPIPITDLADNIERLKANDGLKFSQEYESIDPGQQFTWENSNLEVNKPKNRYANVIAYDHSRVILTSIDGVPGSDYINANYIDGYRKQNAYIATQGPLPETMGDFWRMVWEQRTATVVMMTRLEEKSRVKCDQYWPARGTETCGLIQVTLLDTVELATYTVRTFALHKSGSSEKRELRQFQFMAWPDHGVPEYPTPILAFLRRVKACNPLDAGPMVVHCSAGVGRTGCFIVIDAMLERMKHEKTVDIYGHVTCMRSQRNYMVQTEDQYVFIHEALLEAATCGHTEVPARNLYAHIQKLGQVPPGESVTAMELEFKLLASSKAHTSRFISANLPCNKFKNRLVNIMPYELTRVCLQPIRGVEGSDYINASFLDGYRQQKAYIATQGPLAESTEDFWRMLWEHNSTIIVMLTKLREMGREKCHQYWPAERSARYQYFVVDPMAEYNMPQYILREFKVTDARDGQSRTIRQFQFTDWPEQGVPKTGEGFIDFIGQVHKTKEQFGQDGPITVHCSAGVGRTGVFITLSIVLERMRYEGVVDMFQTVKTLRTQRPAMVQTEDQYQLCYRAALEYLGSFDHYAT | no binding | no binding | – |
| B1 | – | – | no binding |
